Assay results reported in patent US20240181084.

Test system: TALEN-integrase (HIV IN deltaC) fusion pair targeting eGFP, 16 bp spacer
Assay: cell_activity
Details: chloramphenicol-resistant colonies vs untargeted integrase; COS-7 plasmid integration assay

eGFP TALEN pair target, 16 bp spacer
activity: 6 fold
